How the values were obtained:
[1] = molecular target: T1, 5HT3a (Homo sapiens, UniProt P46098); test: Ion channel panel (IonWorks Barracuda): 5HT3a; format: cell-based
T1 construct: host or cells: HEK293 or CHO
T1 sequence (P46098 whole entry, looked up): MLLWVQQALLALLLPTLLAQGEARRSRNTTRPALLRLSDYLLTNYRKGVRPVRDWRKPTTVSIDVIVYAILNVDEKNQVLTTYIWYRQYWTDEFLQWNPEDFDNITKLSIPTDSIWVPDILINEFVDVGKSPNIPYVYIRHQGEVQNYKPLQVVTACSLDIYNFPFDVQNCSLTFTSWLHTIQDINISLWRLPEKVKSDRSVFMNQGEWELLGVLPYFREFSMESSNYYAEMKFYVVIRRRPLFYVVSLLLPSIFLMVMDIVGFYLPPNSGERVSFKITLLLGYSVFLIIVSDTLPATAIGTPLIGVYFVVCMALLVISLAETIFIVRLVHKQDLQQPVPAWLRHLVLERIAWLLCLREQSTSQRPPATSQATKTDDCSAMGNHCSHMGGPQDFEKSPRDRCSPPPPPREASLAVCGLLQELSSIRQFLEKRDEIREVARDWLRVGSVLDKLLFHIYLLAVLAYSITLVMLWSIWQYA
Outline: (§1)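 Transfected HEK293 or CHO cells were exposed for at least 5 min to peptides at 200 nM and 20 μM final, tested in duplicate, in HEPES-buffered physiological saline. Activation was taken as peptide-plus-agonist current over control current ×100, and inhibition as 1 minus that ratio ×100. Each channel's control was its own reference compound.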

[2] = molecular target: T2, α3β4 (Homo sapiens, UniProt P30926+P32297); test: Ion channel panel (IonWorks Barracuda): α3β4; format: cell-based; settings: 100% = no change, <100% = inhibition; for Activity of a3b4 with peptide, expressed as a percentage of the reference compound: peptide at 0.2 μM; for Activity of a3b4 with peptide (percentage of the reference compound): peptide at 20 μM
T2 construct: host or cells: HEK293 or CHO
Outline: as §1

[3] = molecular target: T3, α4β2 (Homo sapiens, UniProt P17787+P43681); test: Ion channel panel (IonWorks Barracuda): α4β2; format: cell-based; settings: 100% = no change, <100% = inhibition; for Activity of a4b2 with peptide, expressed as a percentage of the reference compound: peptide at 0.2 μM; for Activity of a4b2 with peptide (percentage of the reference compound): peptide at 20 μM
T3 construct: host or cells: HEK293 or CHO
Outline: as §1

[4] = molecular target: T4, Cav2.1 (Homo sapiens, UniProt O00555); test: cell-based; settings: 100% = no change, <100% = inhibition; for Activity of Cav2.1 with peptide, expressed as a percentage of the reference compound: peptide at 0.2 μM; for Activity of Cav2.1 with peptide (percentage of the reference compound): peptide at 20 μM
T4 construct: host or cells: HEK293 or CHO
Outline: as §1

[5] = molecular target: T5, Cav2.2 (Homo sapiens, UniProt Q00975); test: cell-based; settings: 100% = no change, <100% = inhibition; for Activity of Cav2.2 with peptide, expressed as a percentage of the reference compound: peptide at 0.2 μM; for Activity of Cav2.2 with peptide (percentage of the reference compound): peptide at 20 μM
T5 construct: host or cells: HEK293 or CHO
Outline: as §1

[6] = molecular target: T6, Kv2.1 (Homo sapiens, UniProt Q14721); test: cell-based; settings: 100% = no change, <100% = inhibition; for Activity of Kv2.1 with peptide, expressed as a percentage of the reference compound: peptide at 0.2 μM; for Activity of Kv2.1 with peptide (percentage of the reference compound): peptide at 20 μM
T6 construct: host or cells: HEK293 or CHO
Outline: as §1

[7] = test system: GABA; test: Ion channel panel (IonWorks Barracuda): GABA; format: cell-based; settings: 100% = no change, <100% = inhibition; for Activity of GABA with peptide, expressed as a percentage of the reference compound: peptide at 0.2 μM; for Activity of GABA with peptide (percentage of the reference compound): peptide at 20 μM
Outline: as §1

[8] = molecular target: Nav1.5 (Homo sapiens, UniProt Q14524); test: in vitro; settings: 100% = no change; for Activity of Nav1.5 with peptide, expressed as a percentage of the reference compound: peptide at 0.2 μM; for Activity of Nav1.5 with peptide (percentage of the reference compound): peptide at 20 μM
Outline: as §1

[9] = molecular target: hERG (Homo sapiens, UniProt Q12809); test: in vitro; settings: 100% = no change, <100% = inhibition; for Activity of hERG with peptide, expressed as a percentage of the reference compound: peptide at 0.2 μM; for Activity of hERG with peptide (percentage of the reference compound): peptide at 20 μM
Outline: as §1

[10] = molecular target: T7, Kir2.1 (Homo sapiens, UniProt P63252); test: Ion channel panel (IonWorks Barracuda): Kir2.1; format: cell-based; settings: 100% = no change, <100% = inhibition; for Activity of Kir2.1 with peptide, expressed as a percentage of the reference compound: peptide at 0.2 μM; for Activity of Kir2.1 with peptide (percentage of the reference compound): peptide at 20 μM
T7 construct: host or cells: HEK293 or CHO
Outline: as §1

[11] = molecular target: T8, Kv1.1 (Homo sapiens, UniProt Q09470); test: cell-based; format: cell-based; settings: 100% = no change, <100% = inhibition; for Activity of Kv1.1 with peptide, expressed as a percentage of the reference compound: peptide at 0.2 μM; for Activity of Kv1.1 with peptide (percentage of the reference compound): peptide at 20 μM
T8 construct: host or cells: HEK293 or CHO
Outline: as §1

[12] = molecular target: T9, Kv1.2 (Homo sapiens, UniProt P16389); test: cell-based; format: cell-based; settings: 100% = no change, <100% = inhibition; for Activity of Kv1.2 with peptide, expressed as a percentage of the reference compound: peptide at 0.2 μM; for Activity of Kv1.2 with peptide (percentage of the reference compound): peptide at 20 μM
T9 construct: host or cells: HEK293 or CHO
Outline: as §1

[13] = molecular target: T10, Kv1.3 (Homo sapiens, UniProt P22001); test: cell-based; format: cell-based; settings: 100% = no change, <100% = inhibition; for Activity of Kv1.3 with peptide, expressed as a percentage of the reference compound: peptide at 0.2 μM; for Activity of Kv1.3 with peptide (percentage of the reference compound): peptide at 20 μM
T10 construct: host or cells: HEK293 or CHO
Outline: as §1

[14] = molecular target: T11, Nav1.7 (Homo sapiens, UniProt Q15858); test: cell-based; format: cell-based; settings: 100% = no change; for Activity of Nav1.7 with peptide, expressed as a percentage of the reference compound: peptide at 0.2 μM; for Activity of Nav1.7 with peptide (percentage of the reference compound): peptide at 20 μM
T11 construct: host or cells: HEK293 or CHO

[15] = molecular target: T12, NR2A (Homo sapiens, UniProt Q12879); test: Ion channel panel (IonWorks Barracuda): NR2A; format: cell-based; settings: 100% = no change, <100% = inhibition; for Activity of NR2A with peptide, expressed as a percentage of the reference compound: peptide at 0.2 μM; for Activity of NR2A with peptide (percentage of the reference compound): peptide at 20 μM
T12 construct: host or cells: HEK293 or CHO
Outline: as §1

[16] = molecular target: T13, NR2B (Homo sapiens, UniProt Q13224); test: Ion channel panel (IonWorks Barracuda): NR2B; format: cell-based; settings: 100% = no change, <100% = inhibition; for Activity of NR2B with peptide, expressed as a percentage of the reference compound: peptide at 0.2 μM; for Activity of NR2B with peptide (percentage of the reference compound): peptide at 20 μM
T13 construct: host or cells: HEK293 or CHO
Outline: as §1

[17] = molecular target: T14, TRPA1 (Homo sapiens, UniProt O75762); test: Ion channel panel (IonWorks Barracuda): TRPA1; format: cell-based; settings: 100% = no change, <100% = inhibition; for Activity of TRPA1 with peptide, expressed as a percentage of the reference compound: peptide at 0.2 μM; for Activity of TRPA1 with peptide (percentage of the reference compound): peptide at 20 μM
T14 construct: host or cells: HEK293 or CHO
Outline: as §1

[18] = molecular target: T15, TRPV1 (Homo sapiens, UniProt Q8NER1); test: Ion channel panel (IonWorks Barracuda): TRPV1; format: cell-based; settings: 100% = no change, <100% = inhibition; for Activity of TRPV1 with peptide, expressed as a percentage of the reference compound: peptide at 0.2 μM; for Activity of TRPV1 with peptide (percentage of the reference compound): peptide at 20 μM
T15 construct: host or cells: HEK293 or CHO
Outline: as §1

[19] = first of two Nav1.5 columns (probably TP1)
[20] = second of two Nav1.5 columns (probably TP2)
[21] = first of two Nav1.7 columns (probably TP1)
[22] = second of two Nav1.7 columns (probably TP2)

Sequence of hERG (Q12809 whole entry): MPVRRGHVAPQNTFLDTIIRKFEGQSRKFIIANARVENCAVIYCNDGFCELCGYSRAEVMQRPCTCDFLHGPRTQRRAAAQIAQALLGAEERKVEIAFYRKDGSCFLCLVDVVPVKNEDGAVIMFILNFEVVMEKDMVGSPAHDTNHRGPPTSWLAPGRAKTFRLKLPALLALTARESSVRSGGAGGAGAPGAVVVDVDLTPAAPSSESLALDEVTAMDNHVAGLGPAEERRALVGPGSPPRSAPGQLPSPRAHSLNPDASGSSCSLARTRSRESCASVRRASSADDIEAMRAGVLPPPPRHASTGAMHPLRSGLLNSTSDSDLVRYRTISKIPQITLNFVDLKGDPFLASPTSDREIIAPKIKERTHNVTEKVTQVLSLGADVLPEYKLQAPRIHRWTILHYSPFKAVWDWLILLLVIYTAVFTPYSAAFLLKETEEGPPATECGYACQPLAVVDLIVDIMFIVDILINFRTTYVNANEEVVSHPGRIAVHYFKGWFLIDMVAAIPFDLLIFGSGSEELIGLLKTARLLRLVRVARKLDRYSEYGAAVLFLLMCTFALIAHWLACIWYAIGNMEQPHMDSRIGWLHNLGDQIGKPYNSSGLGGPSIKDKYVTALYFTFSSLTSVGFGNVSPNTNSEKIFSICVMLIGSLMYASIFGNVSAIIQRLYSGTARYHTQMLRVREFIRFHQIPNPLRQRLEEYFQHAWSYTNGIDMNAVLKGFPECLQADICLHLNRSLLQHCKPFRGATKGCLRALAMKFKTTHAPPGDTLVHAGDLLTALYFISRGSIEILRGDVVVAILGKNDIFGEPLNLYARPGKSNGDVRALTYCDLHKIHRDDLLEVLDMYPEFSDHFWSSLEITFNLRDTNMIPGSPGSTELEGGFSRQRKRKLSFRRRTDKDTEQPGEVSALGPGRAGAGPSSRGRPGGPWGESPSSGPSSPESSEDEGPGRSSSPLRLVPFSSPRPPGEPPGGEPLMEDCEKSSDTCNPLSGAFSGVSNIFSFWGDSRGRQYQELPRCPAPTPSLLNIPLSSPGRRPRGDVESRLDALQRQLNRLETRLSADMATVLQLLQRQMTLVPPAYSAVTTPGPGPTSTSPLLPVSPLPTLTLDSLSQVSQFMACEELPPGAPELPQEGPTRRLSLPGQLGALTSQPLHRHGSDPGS
T6 sequence (Q14721 whole entry): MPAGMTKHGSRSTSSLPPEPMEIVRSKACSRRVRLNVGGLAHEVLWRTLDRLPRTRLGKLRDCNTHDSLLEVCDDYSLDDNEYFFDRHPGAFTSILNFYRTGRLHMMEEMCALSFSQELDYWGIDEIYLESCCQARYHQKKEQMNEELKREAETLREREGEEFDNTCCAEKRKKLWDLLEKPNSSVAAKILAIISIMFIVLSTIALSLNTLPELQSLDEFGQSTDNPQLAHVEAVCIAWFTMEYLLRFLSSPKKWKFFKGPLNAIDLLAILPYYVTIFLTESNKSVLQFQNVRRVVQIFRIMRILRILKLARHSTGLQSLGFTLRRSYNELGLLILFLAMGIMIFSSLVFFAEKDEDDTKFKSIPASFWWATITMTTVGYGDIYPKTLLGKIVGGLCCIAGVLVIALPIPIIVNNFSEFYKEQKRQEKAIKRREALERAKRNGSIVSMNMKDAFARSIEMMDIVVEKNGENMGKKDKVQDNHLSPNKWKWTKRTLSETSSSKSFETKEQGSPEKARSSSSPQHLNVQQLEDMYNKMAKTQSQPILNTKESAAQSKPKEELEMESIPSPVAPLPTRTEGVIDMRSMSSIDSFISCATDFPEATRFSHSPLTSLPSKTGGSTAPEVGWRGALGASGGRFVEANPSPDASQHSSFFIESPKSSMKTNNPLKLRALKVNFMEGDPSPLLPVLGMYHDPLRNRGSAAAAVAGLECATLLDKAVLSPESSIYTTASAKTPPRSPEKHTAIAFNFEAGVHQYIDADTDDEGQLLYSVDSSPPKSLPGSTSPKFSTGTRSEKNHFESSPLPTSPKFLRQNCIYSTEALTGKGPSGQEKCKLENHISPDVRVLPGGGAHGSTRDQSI
T3 sequence (P43681 29-627): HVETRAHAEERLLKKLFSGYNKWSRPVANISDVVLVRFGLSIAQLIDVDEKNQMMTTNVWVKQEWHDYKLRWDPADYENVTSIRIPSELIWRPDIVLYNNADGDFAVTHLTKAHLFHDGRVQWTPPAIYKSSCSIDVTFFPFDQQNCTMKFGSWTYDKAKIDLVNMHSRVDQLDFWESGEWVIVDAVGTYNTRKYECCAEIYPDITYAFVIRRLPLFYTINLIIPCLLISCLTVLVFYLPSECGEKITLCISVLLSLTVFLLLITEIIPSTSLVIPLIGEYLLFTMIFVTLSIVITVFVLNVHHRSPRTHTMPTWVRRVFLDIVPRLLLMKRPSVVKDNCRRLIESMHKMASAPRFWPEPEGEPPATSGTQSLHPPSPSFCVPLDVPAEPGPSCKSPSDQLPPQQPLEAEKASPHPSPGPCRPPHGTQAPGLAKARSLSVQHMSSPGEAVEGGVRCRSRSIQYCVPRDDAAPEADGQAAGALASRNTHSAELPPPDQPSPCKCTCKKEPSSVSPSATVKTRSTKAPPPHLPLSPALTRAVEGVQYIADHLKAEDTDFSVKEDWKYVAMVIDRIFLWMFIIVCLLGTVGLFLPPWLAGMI
T3 sequence (P17787 26-502): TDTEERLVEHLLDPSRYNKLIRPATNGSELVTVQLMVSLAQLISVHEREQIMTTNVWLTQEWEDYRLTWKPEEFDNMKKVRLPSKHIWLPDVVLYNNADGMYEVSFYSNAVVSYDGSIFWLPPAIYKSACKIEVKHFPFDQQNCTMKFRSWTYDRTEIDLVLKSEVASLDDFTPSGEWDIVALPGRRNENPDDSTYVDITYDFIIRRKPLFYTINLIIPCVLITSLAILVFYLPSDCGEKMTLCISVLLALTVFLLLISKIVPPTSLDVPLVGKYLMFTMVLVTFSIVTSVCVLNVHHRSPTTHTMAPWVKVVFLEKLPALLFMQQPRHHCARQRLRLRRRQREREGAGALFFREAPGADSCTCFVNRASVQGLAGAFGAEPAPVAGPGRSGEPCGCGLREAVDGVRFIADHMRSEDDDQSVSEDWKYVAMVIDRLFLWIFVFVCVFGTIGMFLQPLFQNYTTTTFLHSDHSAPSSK
T12 sequence (Q12879 23-1464, other chains not shown): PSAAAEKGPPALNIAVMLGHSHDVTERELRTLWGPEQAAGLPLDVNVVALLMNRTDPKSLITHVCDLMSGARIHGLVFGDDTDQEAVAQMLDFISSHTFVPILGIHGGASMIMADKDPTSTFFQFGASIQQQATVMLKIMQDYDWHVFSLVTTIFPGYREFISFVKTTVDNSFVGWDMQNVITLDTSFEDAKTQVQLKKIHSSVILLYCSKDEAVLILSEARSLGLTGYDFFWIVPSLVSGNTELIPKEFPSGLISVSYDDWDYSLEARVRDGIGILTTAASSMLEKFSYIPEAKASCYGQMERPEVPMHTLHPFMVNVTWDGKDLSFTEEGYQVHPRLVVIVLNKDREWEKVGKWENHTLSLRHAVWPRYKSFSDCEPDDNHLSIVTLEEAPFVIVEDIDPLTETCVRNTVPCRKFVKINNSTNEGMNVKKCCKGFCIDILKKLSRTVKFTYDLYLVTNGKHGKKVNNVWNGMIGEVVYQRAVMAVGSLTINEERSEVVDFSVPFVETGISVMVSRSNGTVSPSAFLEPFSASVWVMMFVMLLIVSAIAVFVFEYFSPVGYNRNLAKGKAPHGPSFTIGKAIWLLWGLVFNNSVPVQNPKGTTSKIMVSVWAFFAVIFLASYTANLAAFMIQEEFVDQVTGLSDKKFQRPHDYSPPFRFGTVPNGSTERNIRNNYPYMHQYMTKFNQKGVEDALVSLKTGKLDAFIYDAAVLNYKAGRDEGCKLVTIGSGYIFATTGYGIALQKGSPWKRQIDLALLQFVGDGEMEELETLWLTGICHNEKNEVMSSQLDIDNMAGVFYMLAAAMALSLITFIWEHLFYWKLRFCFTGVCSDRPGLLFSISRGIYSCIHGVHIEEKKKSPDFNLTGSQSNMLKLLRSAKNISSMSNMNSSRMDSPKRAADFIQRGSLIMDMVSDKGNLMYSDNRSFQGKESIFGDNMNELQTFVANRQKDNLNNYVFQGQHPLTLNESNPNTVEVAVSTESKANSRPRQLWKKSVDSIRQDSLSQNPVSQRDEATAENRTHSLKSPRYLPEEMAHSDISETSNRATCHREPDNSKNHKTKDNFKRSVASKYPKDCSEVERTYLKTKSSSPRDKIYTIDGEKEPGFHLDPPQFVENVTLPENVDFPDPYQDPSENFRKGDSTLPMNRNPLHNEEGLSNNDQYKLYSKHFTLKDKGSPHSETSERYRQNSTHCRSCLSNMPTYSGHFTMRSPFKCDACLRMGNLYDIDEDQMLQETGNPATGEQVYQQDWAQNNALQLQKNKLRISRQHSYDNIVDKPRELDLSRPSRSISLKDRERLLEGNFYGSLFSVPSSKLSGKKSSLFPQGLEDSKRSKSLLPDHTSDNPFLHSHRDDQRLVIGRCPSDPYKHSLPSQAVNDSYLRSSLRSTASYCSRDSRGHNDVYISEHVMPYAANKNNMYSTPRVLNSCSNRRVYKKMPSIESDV
T8 sequence (Q09470 whole entry): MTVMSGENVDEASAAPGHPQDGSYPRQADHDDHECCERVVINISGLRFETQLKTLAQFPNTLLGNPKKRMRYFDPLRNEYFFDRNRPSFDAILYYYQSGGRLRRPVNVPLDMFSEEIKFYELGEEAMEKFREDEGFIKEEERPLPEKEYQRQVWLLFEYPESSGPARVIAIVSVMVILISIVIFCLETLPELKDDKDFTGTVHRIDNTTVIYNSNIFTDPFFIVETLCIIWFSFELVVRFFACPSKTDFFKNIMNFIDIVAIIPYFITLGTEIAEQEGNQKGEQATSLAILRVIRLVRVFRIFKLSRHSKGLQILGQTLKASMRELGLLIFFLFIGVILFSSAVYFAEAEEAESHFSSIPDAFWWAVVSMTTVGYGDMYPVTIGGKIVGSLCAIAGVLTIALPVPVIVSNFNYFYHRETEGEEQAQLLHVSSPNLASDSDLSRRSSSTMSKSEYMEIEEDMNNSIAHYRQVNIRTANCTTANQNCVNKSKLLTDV

Substance	Activity of 5HT3a with peptide (percentage of the reference compound) [1] [%]	Activity of 5HT3a with peptide, expressed as a percentage of the reference compound [1] [%]	Activity of a3b4 with peptide, expressed as a percentage of the reference compound [2] [%]	Activity of a3b4 with peptide (percentage of the reference compound) [2] [%]	Activity of a4b2 with peptide, expressed as a percentage of the reference compound [3] [%]	Activity of a4b2 with peptide (percentage of the reference compound) [3] [%]	Activity of Cav2.1 with peptide, expressed as a percentage of the reference compound [4] [%]	Activity of Cav2.1 with peptide (percentage of the reference compound) [4] [%]	Activity of Cav2.2 with peptide, expressed as a percentage of the reference compound [5] [%]	Activity of Cav2.2 with peptide (percentage of the reference compound) [5] [%]	Activity of Kv2.1 with peptide, expressed as a percentage of the reference compound [6] [%]	Activity of Kv2.1 with peptide (percentage of the reference compound) [6] [%]	Activity of GABA with peptide, expressed as a percentage of the reference compound [7] [%]	Activity of GABA with peptide (percentage of the reference compound) [7] [%]	Activity of Nav1.5 with peptide, expressed as a percentage of the reference compound [8, 19] [%]	Activity of Nav1.5 with peptide, expressed as a percentage of the reference compound [8, 20] [%]	Activity of Nav1.5 with peptide (percentage of the reference compound) [8, 19] [%]	Activity of Nav1.5 with peptide (percentage of the reference compound) [8, 20] [%]	Activity of hERG with peptide, expressed as a percentage of the reference compound [9] [%]	Activity of hERG with peptide (percentage of the reference compound) [9] [%]	also measured
27 (GSACQFWSCNSSCISRGYRQGYCWGIQYKYCQCQ) [compound 27]	78	105	98	93	90	82	108	103	105	116	91	94	112	105	94	93	104	109	90	75	Activity of Kir2.1 with peptide, expressed as a percentage of the reference compound [10]: 101%; Activity of Kir2.1 with peptide (percentage of the reference compound) [10]: 86%; Activity of Kv1.1 with peptide, expressed as a percentage of the reference compound [11]: 81%; Activity of Kv1.1 with peptide (percentage of the reference compound) [11]: 89%; Activity of Kv1.2 with peptide, expressed as a percentage of the reference compound [12]: 84%; Activity of Kv1.2 with peptide (percentage of the reference compound) [12]: 107%; Activity of Kv1.3 with peptide, expressed as a percentage of the reference compound [13]: 106%; Activity of Kv1.3 with peptide (percentage of the reference compound) [13]: 100%; Activity of Nav1.7 with peptide, expressed as a percentage of the reference compound [14, 21]: 104%; Activity of Nav1.7 with peptide, expressed as a percentage of the reference compound [14, 22]: 114%; Activity of Nav1.7 with peptide (percentage of the reference compound) [14, 21]: 97%; Activity of Nav1.7 with peptide (percentage of the reference compound) [14, 22]: 97%; Activity of NR2A with peptide, expressed as a percentage of the reference compound [15]: 98%; Activity of NR2A with peptide (percentage of the reference compound) [15]: 88%; Activity of NR2B with peptide, expressed as a percentage of the reference compound [16]: 79%; Activity of NR2B with peptide (percentage of the reference compound) [16]: 89%; Activity of TRPA1 with peptide, expressed as a percentage of the reference compound [17]: 85%; Activity of TRPA1 with peptide (percentage of the reference compound) [17]: 114%; Activity of TRPV1 with peptide, expressed as a percentage of the reference compound [18]: 99%; Activity of TRPV1 with peptide (percentage of the reference compound) [18]: 67%
29 (GSVFINVKCRGSPECLPKCKEAIGKSAGKCMNGKCKCYP) [compound 29]	91	122	108	98	108	101	100	111	116	100	91	121	123	104	110	114	103	99	95	78	Activity of Kir2.1 with peptide, expressed as a percentage of the reference compound [10]: 103%; Activity of Kir2.1 with peptide (percentage of the reference compound) [10]: 97%; Activity of Kv1.1 with peptide, expressed as a percentage of the reference compound [11]: 97%; Activity of Kv1.1 with peptide (percentage of the reference compound) [11]: 64%; Activity of Kv1.2 with peptide, expressed as a percentage of the reference compound [12]: 77%; Activity of Kv1.2 with peptide (percentage of the reference compound) [12]: 42%; Activity of Kv1.3 with peptide, expressed as a percentage of the reference compound [13]: 21%; Activity of Kv1.3 with peptide (percentage of the reference compound) [13]: 0%; Activity of Nav1.7 with peptide, expressed as a percentage of the reference compound [14, 21]: 97%; Activity of Nav1.7 with peptide, expressed as a percentage of the reference compound [14, 22]: 111%; Activity of Nav1.7 with peptide (percentage of the reference compound) [14, 21]: 67%; Activity of Nav1.7 with peptide (percentage of the reference compound) [14, 22]: 62%; Activity of NR2A with peptide, expressed as a percentage of the reference compound [15]: 93%; Activity of NR2A with peptide (percentage of the reference compound) [15]: 87%; Activity of NR2B with peptide, expressed as a percentage of the reference compound [16]: 101%; Activity of NR2B with peptide (percentage of the reference compound) [16]: 82%; Activity of TRPA1 with peptide, expressed as a percentage of the reference compound [17]: 89%; Activity of TRPA1 with peptide (percentage of the reference compound) [17]: 109%; Activity of TRPV1 with peptide, expressed as a percentage of the reference compound [18]: 109%; Activity of TRPV1 with peptide (percentage of the reference compound) [18]: 86%
